Results as given in the DeepSol protein solubility set.

Assay: soluble on expression in E. coli; label from the status in PepcDB or PDB records

| Sequence | soluble on expression in E. coli |
| --- | --- |
| MAHHHHHHMLKACLPRHLRVTPLLRVWAAEEDDANAPPTTFKNVKPGRLLRLWRQIRQRAWVAFTWDEEWTSPGSEGYLHQQRLEQVCFAPLSAYGMVPGSYCDPLLYNTKNTSPFRWHVANTSSDIVGHWYMEADEIFRIKDWQPKNPDDPTEMFPRPPQQILKWDETVDEHGNRTFRYKYRYDFMGPTGMWEAYPRYPFSHLYLNGQDHHGRAEGYGFKQGHLLRCSEEEEEVLRRIMEEEDKEWEMVKRTEVVQEPWSYPGKIRPQDFNGAVERAKARFREQIKQGKETDPSEDPDYDLVQAGEYVEPRDGPRAEWRHLWTSNRAKGEPLPYQVTFNDGITFEDNEEKPPVHPASHYEVKPKEAPYKKYEEQDTKEADEKQKKLKEQWEKSFEESISRHEKTVGDGKTSGGNSDSRSSGSAADSGAKEPPK | not soluble |
| MAHHHHHHMLKCVSRVFLGAKTVPLNPHVPFKLHTAGRDDLPPIPTTATYEPEKIKENLAMMIRIRRVEALADQSYKLKKIRGFCHLCIGQEAIPVGMENVLSRGDPVVTGYRDHGLFMTRGGTIEELFAELFGREGGCSKGKGGSMHMYRVKENFYGGNGIVGAQAPLGAGLAWRYALENRDKPSNVAVTFYGDGAANQGQVFEAMNIAALQRIPVIFCCENNHYGMGTREDRAAYQPQMYRRGDYIPGLRVDGMDVLAVQEGTRWAKEWCLAGKGPVVLEMDSYRYMGHSMSDPDSQYRTKNDIQEVRRTRDCIEKMKEFVVSEGIMTVEEIKQMEKDVKKEVDKELPPAEKQAITPLKELFTDIYCGEQYEHRTTQGTVYAKP | not soluble |
| MAHHHHHHMLNALGITSPRHDALIAKFLKAMAVEGGASEATKRDEAVDAARFVYVFSTVWRAAVTHRTPRSPVSTRVSAPPRSPPAAQQHGNSPDGATMRHAYSREVSCRGAPPSHMKAAPATEVGSSGGSGSAVSARSSSSPSAVWSSSEGGEGAAHSHTESASPLTSCGGGDERRSDAAESDADFLRTNISDASSSIPDSSEKPQAGVRSEELSPMSVEPSAGLDPSPEPCNPGEPVIITSARSSVTPRTHHCSPFAAASRLGSASVSRSRRMSSSLRVIPSDSHLLSSTTSRELKRATKRVPGGLMRECTFKPVINSVYEQSPVSFSSTAIVQKRKPASTAPPTFQPNTQQFHQARDSLARWTRQPIKDNSDYRGEAAANPLATGVETAVRRMIAARQQRQRSQSPRPSLQKGSHHSAPAPQSTVRAPVAHPRKPLLYVDVDLPQGQRDRLALYTGDDVQDVAQRFSILHGLSESLCQRLETALTAELCALSVGKAA | not soluble |
| MAHHHHHHMLNKGFTATKIIGKRCFQWWDNLNTSWKFAIGFSVLFPPLWNYNERRKAREKQVYYNKSIRDYVFFDIAIENKYVGRVLIGLYSDQVPLSVENFIQLAEGYKVKDKYIGYRNTFIHKIYPGIGLVGGNVLNDKEGLSIYGKKFPDENFDMEFVQDGDVALFNEGPHSNSSQFIITFSPMPILHKHNVVIGTVLKGMDIIRMIENVGTKLGNPMYNVKIINCGLYRSLEQDGPPFFNMMHISDKGNKNIISKKEFESLSEQQRQSLMEEIGKSEKRR | soluble |
| MAHHHHHHMLNRSRLRRVWLGGTAANTSLGRDVMPSTGKYINIVSPTDVAANISAGAMPPEANVAAALPVPRIQYSKWNRALRSDVYDELLKLPLRYKLHDFAKLCPPQRCQEEPEAVGVVGRDSAVGYLPPLGPADPLDTIPFFVHRSSNGVLPGKVFSMHPRNLMPAFYLRIQQVEGDMFRFEEELLKIFPTKKIFVRSHSIYVYNVALDGRMVLHHWLLGLGF | not soluble |
| MAHHHHHHMLPRGEQHVSVAGSDDYMDDAASALLSELQQVVVRVSHQMVEERRRAAQQRKQIRALEAIVAEQDAMLDALRTQCDAAQCEKSRLLKSYQQELRWRGADPVQAARRSRDICGTSGTHVSAAQVDNVVQAEFRRLSTIYESCPFSGFDDVSPVVAAVLRSLATQVLQLRGAARNDEAEASDISKDAQPAPVQPHATSSSLRASARGTSTSSLMPAFNRSAPTDGHGKAGVVDRVTPLAALEKRKKASMFAAATAGPNHSPSETAGRTNGEEAELHRVDLDAGRNGDADAAACMASEASASVASSVCEDAASILSDIRARYGL | not soluble |
| MAHHHHHHMLRNALSCFLEQLELARLTETLPSNIDYAELVAMVQQRLQGAPGKTLGVFEHLRAKEIRLPEPDNPDYAVASMSAPLTVFLFDIEGTTTPLPFVQKVLMPLAESRVEAYMAAHFPADQAFVDLLTAAAERPSSPLAKAQTAYSKAFTDALATSGARDWKDEAANEVTRSDFCAFFHHQIKRGADHAAVKVVQAAIWAEVFAEGKLQSPVFPDVNTFFRFVGGPAMAERTRIALYSSGSVAAQKLVMGHTSYGDLNPFITAYFDPLLVGTKLMPKSYMKIRTLLVEQLDIPPESMHIVFVTDNTSEASAAETSGAVESAILCVRPLNDWITFDTMLSINVPYIMSFTQLMQRNCVVDMAKLVSDTKECIKQHNIS | soluble |
| MAHHHHHHMLRRNIRLRKEYLYLKKVEDEKKKYAEKIKSIKESYDKNKKIRGDLKDEESELRKNMNLYDEKSFDRKVDDEYFFCGLENPRVLITTSRNPSSTLENFAKELKLIIPNSEKINRGSYFIKDILNFARKNNITDVIILHEYKGIPRNLIICHLPFGPTLFCTIKDCKMRCEFNEKIDNISLCTPHLIFHNFHSDLGKRIMNIFKYLFPPVTMRTNKRKMPKHNSQIVKDNKLNKNININTNNNDTNQMDQMDQMNKIKFVTHTTQDDEDNNDHLQIYFKNNEYLNLQKYENNRVIVFFNKNDIIYFRHYNWEKNQTNEIVLKEIGPRFSFVVYKINKETLDSLNEDYEYIYRPFMNSRKALLT | not soluble |
| MAHHHHHHMLRSPQPRFPQHVPGAYPPQQQQQMPPQPQSQPQMPMNAQPPAQAIQQQLEHQDVVHDTQFDYYGQLLATASSDRTIGIHVVQNGQLQRIATLTGHEGPVWMVSWAHPRFGMALASAGYDHKAIIWKEMSQSSKQWAPVHVIDCHHGSVNAVQWAPETPMVATASSDGTVAVTVFEGGVWRDSLKLSNNSNNIAHAMGATSVSFAPMRPSLGGAVLLASGGCDSQVRLWCLQEGSPMANSFELLEVLEGHTDWVRDVAFAPLCAATRHAVLASCGQDKSVIIHRKPWDQLGALIQERQRSSSTNGPQQYLQKESGGIWERSVVLFEEPVWRLSWSPAEEVLVVTTGDSEVYILRENGEFTQPWLKTPLSEYQSGTR | not soluble |
| MAHHHHHHMLTNLRFLELQKLLLKRFQIFKNEEITILKKDSMKTILNEWAEFLTKEQKGTNITHIPDEVLQNKKVADILRDDIECRWLVGRINVGNNQESPVGTNDVNSSCSAALARKGTALSKIDQLHFDEYPNLFHYEYPQFPYNYYDKKKMENFYSLLKFPYNDILKISKMIKRDVISPSGNAEEGEILQQGGKAQSEVLESTHVDVVNDDFMNYSSNSYVYAPSEMETSKENYHE | not soluble |
| MAHHHHHHMMLKVRYENFNDLRNDDEMLNISFVAHPCYYSILDLEESELFNKIVYENFCKVAEKVDIYDKNEYLSVYRRHDKKCRELHMLKSWELLKNTYRYKMPVIFKNLKDFDLYNMEKIPFYSINYNKKKKGTKENGFVVRNKKKINIIDKGKCFILDNHMIYSMTPEYIANNISKNILLNTHHIMKGNNILSLKEDDKYVKHQKVNDNPYYFKLRYHYNDDDIYCKDNYSYKRKGISPIKKKRKIEPILYNNKKMDYEEKKRILIYLDPFAGAGGNCNHMNNIFTIGCDINFYRIKQCQHNCNFYNKNVDFILCDFFNLVTHFRKGTIDVIFFSIPWGGPKYKNKKNFELNTEIMDNISIYKCIEVSVELTENLVFYLPRNVCMKELYYLYGYYKELVKNKKCVNYENDDIYKYDRKGEGGKKKKKKKKKKILS | not soluble |
| MAHHHHHHMMMMRPDAGRRGDRHEVTRSQWEMHNSVITDDAFLFPKMELMEELHKTQPWKKSPRYFQRVKVSVLAALQMMIHAKRGSPNVTCSNGSGVADSSAASMRNEPSRENWFEVMVLMLGHFNEDEMIVTSAFALPVDASEVECSMNDASQLYMLDFLQYHQRGGTQEGCIGWYHSHPGYTCFLSGTDVNTQQLGQTAQDPWLAIVVDPVRTISTGKLDMKAFRTFPEKYVAEQQGTSQHTQGKHWEGSTTSTWVPSERIREYGVHAHRYYELPITLVRSKDDEAQLECLWSRYWALTFCSNLFTANRKLMTKQIHQLAEVLESGVASRHQTMMKGDGYLPGHKLGSQHQRKGGGAVDDETPDGVEAFKQRSLHVRYLTSSLTSEAASGGNTAGGQKFRLSSMIFLLVLARVFLSF | not soluble |
| MAHHHHHHMMSRFETSPRDRRYNSAVRSSLFSFVLRRRRNLHDKKKPPLSANGPLTSVVHPRARNHLPDEVNLTTTLVRSCFCINIAPLPARSCASYSPRCSEQTVSRFFPHPFTFRASAIRGHNARLQLRRCTHHFLETPL | not soluble |
| MAHHHHHHMNAVDAEYVEHHGVDNLIIPISVSEPKETKRGDYAYCVDVVVHTLLIKKCSRGHRLLEHLTEKLVTLSIEWIRSECGVQLLPRSCRIAGNPLYFDDTVDTPKSIASIIENAAELLQRKSNSSNSRKDEQDTIPDALNLRKAQVPESKQPLIREVISTPAIKKGFLVDGNARLYGPDGSSEGSSKAPDPLAHIPESLRERCRIIDTRNMEGLTASPAKTMKSVDKTANTHTSGTFVAPTSEPQGKDEANWARFSIERTGEKVIVRFLAPDSVSSLHDIDLSATKDTLEINGSVTQLPVPIVTDDVRAKFVKATRILVVTCLIDVS | not soluble |
| MAHHHHHHMNFLRRNAANLCKGKVLGKHLNCSVHELTNLNKRKISNITDLGKCGQRYQATHSGSTIGAKRFASSEAQKLSEVVKAEVQHEKSNYEAPDNIKKFLQTSGWKFEEQEGDVNMVLTKNVDGMKIIIDFQLVSPFQAEGENEAQAEMTDFSVTVEKPNKQGGITFYCTTLQNDEKFRYMIGNVKYYKNEEGKNSVSAYNGPEFEDLDDSLQTSLDEWLANLGVDSELCDFIDSCSIDKEQREYMSWLQNISNFIES | not soluble |
| MAHHHHHHMNGLRISTYFSAFKMRWMLENVPKVEEARKRGTLCFGTIDAWLLWKLSGGKVFVTDVTNASRTFLMDIRTCKWSPELCDKLGIPMACLPEIRSNSELLTYVLSDEGGLSAALRHPTPIMGSIADQQGALLGNMCFKEGESKNTYGTGCFLLMTVGEKIRFSSHGLLSTVAYQIGNKSPFIYALEGSIAGAGATIEWLKNNMKLIDDVSDCEKFAQTVSDTHGVVFVPAFSGFLAPSWDPSARGSIFGMTLKTTRAHVLRAALLAIALQVVDVLEAMEKDAEVKVQFLRVDGGLTKNHLLMKMQSDLLGINLHRPTMAETTALGAALCAGLAAGVWKSLEEVKTISQQANVWRVIRPAASKDSQQMLRAQWKRAKQQAKWAKL | not soluble |
| MAHHHHHHMPIKNVQEFLPNVRPDAFPVVVAVQAQASIPVGINLAELSCATRNVEYMPNNRIPSATMRLHEPTAVVMMHNSGALSIIGAASVSEARQAAELAARIIRKALNLNFSSLKFRVRSIAARFNVCSPIRLDKLAAYQLDPAMSIGVAKLQVSYEPERFNGCVLRLVGKSSRGDNQWSVSCSVFVTGKVQLMGARSMDELRFAFNAFVPIIAKNLDERKTA | not soluble |
| MAHHHHHHMPSDGEGKVQQVNIDEIDAVTGFKKAELYVWNAYAAAFLAEGGEPETDVEAWIDDFCQRSEESGAVFDRNFVKSVCTLGIYAGPRDEFQQRSGCGKATYASGDTYEGEFFEGKKHGRGQYIFVSKGRSEADRVVSKEVELLTSAGKDAKAMVTEIATKLQLGRHVVEGIMQYGQRPCYHGDYVRGKRTGRGVMKNKDGTLYQGEFLENKRHGQGVYYYLNGDVYSGNWKAGAKDGYGTYHFAEGSEYRGEWVRGNFVQGQWILQGGSYYEGKFDKKNRPLDDAASLHYPSIQMAQTGAFRRGIWAPTSALQVCSEVPVDGMAWAD | soluble |
